Our source for the reduction of the integration of Sec61βOPG2 and RAMP4OPG into RMs (N-glycosylation) in vitro, post-translational, with an excess of WRBcc values is paper PMC5702047.

For the experiment, the target named is TRC40 (rabbit (endogenous in reticulocyte lysate)).

As for “cytosolic domain of the WRB receptor (WRBcc) (domain or fragment)”, the reduction of the integration of Sec61βOPG2 and RAMP4OPG into RMs (N-glycosylation) in vitro, post-translational, with an excess of WRBcc was 50%.
